Test results published in article doi:10.1101/2022.11.09.514853 (bioRxiv, 2022).

Biological target: the molecule itself
Test: cryo-EM structure

B1: human GluN2D, C-terminal domain truncated (M1-P879), Strep-tag II (receptor, UniProt O15399 28-879, looked up)
chain: FPEEAPGPGGAGGPGGGLGGARPLNVALVFSGPAYAAEAARLGPAVAAAVRSPGLDVRPVALVLNGSDPRSLVLQLCDLLSGLRVHGVVFEDDSRAPAVAPILDFLSAQTSLPIVAVHGGAALVLTPKEKGSTFLQLGSSTEQQLQVIFEVLEEYDWTSFVAVTTRAPGHRAFLSYIEVLTDGSLVGWEHRGALTLDPGAGEAVLSAQLRSVSAQIRLLFCAREEAEPVFRAAEEAGLTGSGYVWFMVGPQLAGGGGSGAPGEPPLLPGGAPLPAGLFAVRSAGWRDDLARRVAAGVAVVARGAQALLRDYGFLPELGHDCRAQNRTHRGESLHRYFMNITWDNRDYSFNEDGFLVNPSLVVISLTRDRTWEVVGSWEQQTLRLKYPLWSRYGRFLQPVDDTQHLTVATLEERPFVIVEPADPISGTCIRDSVPCRSQLNRTHSPPPDAPRPEKRCCKGFCIDILKRLAHTIGFSYDLYLVTNGKHGKKIDGVWNGMIGEVFYQRADMAIGSLTINEERSEIVDFSVPFVETGISVMVARSNGTVSPSAFLEPYSPAVWVMMFVMCLTVVAVTVFIFEYLSPVGYNRSLATGKRPGGSTFTIGKSIWLLWALVFNNSVPVENPRGTTSKIMVLVWAFFAVIFLASYTANLAAFMIQEEYVDTVSGLSDRKFQRPQEQYPPLKFGTVPNGSTEKNIRSNYPDMHSYMVRYNQPRVEEALTQLKAGKLDAFIYDAAVLNYMARKDEGCKLVTIGSGKVFATTGYGIALHKGSRWKRPIDLALLQFLGDDEIEMLERLWLSGICHNDKIEVMSSKLDIDNMAGVFYMLLVAMGLSLLVFAWEHLVYWRLRHCLGP
  binding result: binds
